Here are results for 1 protein from publication PMC5183593, “Conformational Rigidity within Plasticity Promotes Differential Target Recognition of Nerve Growth Factor” (Frontiers in Molecular Biosciences, 2016).

This data set deals with the molecule itself. Description: NMR relaxation (T1, T2, heteronuclear NOE); 15N relaxation at 600 MHz and 30°C; correlation time 14.8 ns.

B1: recombinant mouse Nerve Growth Factor (mNGF) (natural protein, UniProt P01139 122-241, looked up)
chain: SSTHPVFHMGEFSVCDSVSVWVGDKTTATDIKGKEVTVLAEVNINNSVFRQYFFETKCRASNPVESGCRGIDSKHWNSYCTTTHTFVKALTTDEKQAAWRFIRIDTACVCVLSRKATRRG
modifications: 15N or 15N-13C isotope labeled
notes: Nerve Growth Factor (beta-NGF), mouse, mature form cut from the precursor proNGF; 118 amino acids per protomer (S1 to residue 118), non-covalent homodimer of 26 kDa; numbers count on: the mature protein; Expression host and the details of the construct are in the Supplementary Information and in Paoletti et al., 2011; also called mouse NGF
Usually stoichiometry N stands for the number of molecules, sites or subunits per partner or assembly. In the case of B1, the “stoichiometry N” value is 2.
